Results from paper PMC9321335, “Palmitic Acid-Conjugated Radiopharmaceutical for Integrin αvβ3-Targeted Radionuclide Therapy” (Pharmaceutics, 2022).

Experiment: in vivo
Details: C57BL/6, mouse, 0.74 MBq, total radioactivity
Method: Mice bearing MC38 xenografts were randomly divided into 10 groups (n = 4). The mice in five groups were administered 0.74 MBq/20 µCi of ^177Lu-Palm-3PRGD2 and sacrificed at 1, 4, 12, 24, and 72 h p.i. The mice on one group was injected with 0.74 MBq/20 µCi of ^177Lu-Palm-3PRGD2 and 500 μg (242 nmol) 3PRGD2 as a blocking agent and sacrificed at 1 h p.i. […] Tumors and major organs were harvested, weighed and measured for radioactivity using a γ-counter. The organ uptake was calculated as the percentage injected activity per gram (%IA/g). The effective absorbed dose in humans estimated from mouse biodistribution data by using a dedicated software (OLINDA 1.0).

CCCCCCCCCCCCCCCC(=O)N[C@@H](CCC(=O)NCCCC[C@H](NC(=O)CN1CCN(CC(=O)O)CCN(CC(=O)O)CCN(CC(=O)O)CC1)C(=O)NCCOCCOCCOCCOCCC(=O)N[C@@H](CCC(=O)NCCOCCOCCOCCOCCC(=O)NCCCC[C@@H]1NC(=O)[C@@H](Cc2ccccc2)NC(=O)[C@H](CC(=O)O)NC(=O)CNC(=O)[C@H](CCCNC(=N)N)NC1=O)C(=O)NCCOCCOCCOCCOCCC(=O)NCCCC[C@@H]1NC(=O)[C@@H](Cc2ccccc2)NC(=O)[C@H](CC(=O)O)NC(=O)CNC(=O)[C@H](CCCNC(=N)N)NC1=O)C(=O)O [^177Lu-Palm-3PRGD2, [^177Lu]Lu-DOTA-Palm-3PRGD2, metal not drawn]
tissue uptake at 1 h (Blood uptake): 9.73 %ID/g
tissue uptake at 4 h (Blood uptake): 4.11 %ID/g
tissue uptake at 12 h (Blood uptake): 0.58 %ID/g
tissue uptake at 24 h (Blood uptake): 0.24 %ID/g
tissue uptake at 72 h (Blood uptake): 0.21 %ID/g
tissue uptake at 1 h (Bone uptake): 3.39 %ID/g
tissue uptake at 4 h (Bone uptake): 4.55 %ID/g
tissue uptake at 12 h (Bone uptake): 3.05 %ID/g
tissue uptake at 24 h (Bone uptake): 3.13 %ID/g
tissue uptake at 72 h (Bone uptake): 1.97 %ID/g
tissue uptake at 1 h (Brain uptake): 0.52 %ID/g
tissue uptake at 4 h (Brain uptake): 0.55 %ID/g
tissue uptake at 12 h (Brain uptake): 0.43 %ID/g
tissue uptake at 24 h (Brain uptake): 0.4 %ID/g
tissue uptake at 72 h (Brain uptake): 0.29 %ID/g
tissue uptake at 1 h (Heart uptake): 5.59 %ID/g
tissue uptake at 4 h (Heart uptake): 4.93 %ID/g
tissue uptake at 12 h (Heart uptake): 3.2 %ID/g
tissue uptake at 24 h (Heart uptake): 2.7 %ID/g
tissue uptake at 72 h (Heart uptake): 1.53 %ID/g
tissue uptake at 1 h (Intestinal uptake): 20.6 ± 1.97 %ID/g
tissue uptake at 72 h (Intestinal uptake): 12.8 ± 1.06 %ID/g
tissue uptake at 4 h (Intestine uptake): 17.6 %ID/g
tissue uptake at 12 h (Intestine uptake): 21.1 %ID/g
tissue uptake at 24 h (Intestine uptake): 17.4 %ID/g
tissue uptake at 1 h (Kidney uptake): 17.6 %ID/g
tissue uptake at 4 h (Kidney uptake): 20.1 ± 0.6 %ID/g
tissue uptake at 12 h (Kidney uptake): 19.3 %ID/g
tissue uptake at 24 h (Kidney uptake): 17 %ID/g
tissue uptake at 72 h (Kidney uptake): 10.6 ± 1.11 %ID/g
tissue uptake at 1 h (Liver uptake): 13.7 %ID/g
tissue uptake at 4 h (Liver uptake): 22.4 ± 2.55 %ID/g
tissue uptake at 12 h (Liver uptake): 22.1 %ID/g
tissue uptake at 24 h (Liver uptake): 13.7 %ID/g
tissue uptake at 72 h (Liver uptake): 6.73 ± 1.18 %ID/g
tissue uptake at 1 h (Lung uptake): 7.79 %ID/g
tissue uptake at 4 h (Lung uptake): 7.85 %ID/g
tissue uptake at 12 h (Lung uptake): 5.2 %ID/g
tissue uptake at 24 h (Lung uptake): 3.53 %ID/g
tissue uptake at 72 h (Lung uptake): 1.55 %ID/g
tissue uptake at 1 h (Muscle uptake): 1.96 %ID/g
tissue uptake at 4 h (Muscle uptake): 1.7 %ID/g
tissue uptake at 12 h (Muscle uptake): 1.24 %ID/g
tissue uptake at 24 h (Muscle uptake): 0.96 %ID/g
tissue uptake at 72 h (Muscle uptake): 0.7 %ID/g
tissue uptake at 1 h (Spleen uptake): 7.35 %ID/g
tissue uptake at 4 h (Spleen uptake): 12.4 %ID/g
tissue uptake at 12 h (Spleen uptake): 18.4 %ID/g
tissue uptake at 24 h (Spleen uptake): 14.9 %ID/g
tissue uptake at 72 h (Spleen uptake): 8.38 %ID/g
tissue uptake at 1 h (Stomach uptake): 5.73 %ID/g
tissue uptake at 4 h (Stomach uptake): 7.22 %ID/g
tissue uptake at 12 h (Stomach uptake): 6.07 %ID/g
tissue uptake at 24 h (Stomach uptake): 3.7 %ID/g
tissue uptake at 72 h (Stomach uptake): 1.38 %ID/g
tissue uptake at 1 h (Tumor uptake): 14.4 ± 2.53 %ID/g
tissue uptake at 4 h (Tumor uptake): 26.3 ± 6.34 %ID/g
tissue uptake at 12 h (Tumor uptake): 22.9 ± 4.2 %ID/g
tissue uptake at 24 h (Tumor uptake): 17.2 ± 3.3 %ID/g
tissue uptake at 72 h (Tumor uptake): 5.83 ± 1.27 %ID/g
tissue to tissue ratio at 1 h (Tumor-to-tissue ratio, Blood): 1.47
tissue to tissue ratio at 4 h (Tumor-to-tissue ratio, Blood): 7.28
tissue to tissue ratio at 12 h (Tumor-to-tissue ratio, Blood): 44.9
tissue to tissue ratio at 24 h (Tumor-to-tissue ratio, Blood): 73.2
tissue to tissue ratio at 72 h (Tumor-to-tissue ratio, Blood): 28.2
tissue to tissue ratio at 1 h (Tumor-to-tissue ratio, Bone): 4.3
